Laboratory results from paper PMC6149694, “Engineering the L-Arabinose Isomerase from Enterococcus Faecium for D-Tagatose Synthesis” (Molecules : A Journal of Synthetic Chemistry and Natural …, 2017).
Several values for one entry are separate records, joined by “and”; a condition that tells them apart may be missing. Identical values can stand only once.

B1: N-terminal His-tagged L-arabinose isomerase (L-AI) from Enterococcus faecium DBFIQ E36 (enzyme, UniProt Q3Y1E5 1-474, looked up)
chain: MLNIGEKEFWFVVGSQHLYGEEALREVKKHAQEMVDELNENGQLPYPIRLQELAVTADTITKIMKEVNYREEVAGVITWMHTFSPAKMWIRGTKLLQKPLLHLATQYNESIPWKTIDMDFMNLNQSAHGDREYGFINARLNKQNKIVVGYWKRPEIQKEIADWMDVAVAYNESFGIKVARFGDNMRNVGVTEGDKVEAQIQFGWTVDYFGIGDLVQVIDRVSDEEVDQLFEEYKELYTFDYGDYEEKTWEEHVKVQAQQEIGIRRFLEEGGYNAFTTNFEDLYGMKQLPGLAVQRLMAEGYGFAGEGDWKTAAIDRLLKIMARGKDTGFMEDYTYELASGQEAILESHMMEVDPTLAATKPRIVVSPLSMGDREDPARLVFDGKAGEGVVVSMADFGTHYKLLINEVEAFEPTTEAPNLPVARVLWKTKPNFHEGVHSWIQAGGGHHTVVSLNLTTDQIETWAKLVELETVVIR
notes: codon-optimised synthetic gene; the construct has 481 aa including the initial methionine (MW 55,036); also called N-His-L-AI; recombinant L-AI; not shown: His6, N-terminal, kept
B2: C-terminal His-tagged L-arabinose isomerase (L-AI) from Enterococcus faecium DBFIQ E36 (enzyme, UniProt Q3Y1E5 1-474, looked up)
chain: MLNIGEKEFWFVVGSQHLYGEEALREVKKHAQEMVDELNENGQLPYPIRLQELAVTADTITKIMKEVNYREEVAGVITWMHTFSPAKMWIRGTKLLQKPLLHLATQYNESIPWKTIDMDFMNLNQSAHGDREYGFINARLNKQNKIVVGYWKRPEIQKEIADWMDVAVAYNESFGIKVARFGDNMRNVGVTEGDKVEAQIQFGWTVDYFGIGDLVQVIDRVSDEEVDQLFEEYKELYTFDYGDYEEKTWEEHVKVQAQQEIGIRRFLEEGGYNAFTTNFEDLYGMKQLPGLAVQRLMAEGYGFAGEGDWKTAAIDRLLKIMARGKDTGFMEDYTYELASGQEAILESHMMEVDPTLAATKPRIVVSPLSMGDREDPARLVFDGKAGEGVVVSMADFGTHYKLLINEVEAFEPTTEAPNLPVARVLWKTKPNFHEGVHSWIQAGGGHHTVVSLNLTTDQIETWAKLVELETVVIR
notes: codon-optimised synthetic gene; the construct has 482 aa including the initial methionine (MW 55,221); also called C-His-L-AI; recombinant L-AI; not shown: His6, C-terminal, kept

Biological target: the molecule itself
Experiment: AUC; sedimentation velocity, 20 °C, 50 mM sodium phosphate buffer pH 7.0, absorbance at 285 nm, c(s) by SEDFIT; distributions shown for 0.43 g L^-1 N-His-L-AI and 0.3 g L^-1 C-His-L-AI; self-association, monomer to oligomers

Protein	stoichiometry N
B1	4 and 6
B2	3 and 6
